Measured values taken from patent publication US20260234242A1 (HAINAN SIMCERE ZAIMING PHARMACEUTICAL, published 2026).

Assays:
[1] = molecular target: T1, his-tagged human CDH6 extracellular region protein (hCDH6 ECD-his) (human, UniProt P55285 19-615); assay: ELISA, coated antigen
T1 construct: also called Human CDH6-his; hCDH6-his; not shown: his tag
T1 sequence: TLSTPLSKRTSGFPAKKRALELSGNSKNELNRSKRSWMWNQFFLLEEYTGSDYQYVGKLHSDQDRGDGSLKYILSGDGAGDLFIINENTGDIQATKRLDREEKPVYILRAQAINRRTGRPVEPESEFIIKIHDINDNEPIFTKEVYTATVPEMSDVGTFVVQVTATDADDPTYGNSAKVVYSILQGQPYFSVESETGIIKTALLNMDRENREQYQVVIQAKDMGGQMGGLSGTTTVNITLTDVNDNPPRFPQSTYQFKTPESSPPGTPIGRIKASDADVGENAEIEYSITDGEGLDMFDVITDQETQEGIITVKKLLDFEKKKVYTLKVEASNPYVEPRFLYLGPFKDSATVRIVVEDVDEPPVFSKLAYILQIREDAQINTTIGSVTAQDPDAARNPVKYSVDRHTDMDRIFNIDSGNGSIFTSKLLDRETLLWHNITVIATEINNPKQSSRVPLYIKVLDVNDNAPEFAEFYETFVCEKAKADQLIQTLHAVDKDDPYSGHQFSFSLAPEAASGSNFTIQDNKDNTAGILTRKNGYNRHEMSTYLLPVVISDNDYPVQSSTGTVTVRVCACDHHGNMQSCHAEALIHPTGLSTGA

[2] = molecular target: T2, human CDH6 on tumor cells (OVCAR3 cells, PA-1 cells) (human, UniProt P55285 54-790); assay: FACS, PA-1 cells
T2 sequence: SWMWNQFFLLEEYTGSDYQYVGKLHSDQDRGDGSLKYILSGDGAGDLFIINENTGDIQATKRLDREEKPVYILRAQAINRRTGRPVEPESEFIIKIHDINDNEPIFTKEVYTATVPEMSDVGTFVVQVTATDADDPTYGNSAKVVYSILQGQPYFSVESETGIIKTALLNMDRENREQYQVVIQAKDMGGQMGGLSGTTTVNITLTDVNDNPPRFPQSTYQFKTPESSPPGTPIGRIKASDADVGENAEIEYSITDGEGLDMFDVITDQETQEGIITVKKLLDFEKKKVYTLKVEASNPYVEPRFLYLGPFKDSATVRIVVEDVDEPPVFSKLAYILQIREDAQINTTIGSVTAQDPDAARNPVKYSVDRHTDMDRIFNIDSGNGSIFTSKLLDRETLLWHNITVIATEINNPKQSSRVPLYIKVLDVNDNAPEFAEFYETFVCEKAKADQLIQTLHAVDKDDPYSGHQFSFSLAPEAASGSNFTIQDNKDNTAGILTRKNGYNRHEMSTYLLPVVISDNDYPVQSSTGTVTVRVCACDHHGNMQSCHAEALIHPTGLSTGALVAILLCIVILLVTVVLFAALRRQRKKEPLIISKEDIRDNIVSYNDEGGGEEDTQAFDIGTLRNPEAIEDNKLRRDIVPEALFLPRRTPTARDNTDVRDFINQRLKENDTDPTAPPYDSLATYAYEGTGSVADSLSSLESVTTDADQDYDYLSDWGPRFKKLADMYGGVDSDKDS
Description: OVCAR3 cells with high expression of CDH6 and PA-1 cells with moderate expression of CDH6 were used to detect the binding activity of the antibodies to the cells. […] The cells were washed once with PBS, counted, resuspended to 2×10⁶ cells/mL in an FACS buffer (PBS+2% FBS), and then added to a 96-well plate at 50 μL/well. The chimeric antibodies were diluted with FACS buffer (PBS+2% FBS) and added to the 96-well plate at 50 μL/well, and the plate was incubated at 4° C. for 1 h. […] The dilution was added to the 96-well plate at 50 μL/well, and the plate was incubated at 4° C. for 1 h. After the plates were centrifuged and washed 2 times with PBS, the cells were resuspended in an FACS buffer. The mean fluorescence intensity (MFI) was measured using FACS Canton II (BD). Analysis was performed by the GraphPad Prism software, data were fitted, and EC50 values were calculated. The chimeric antibodies tested had strong binding to both OVCAR3 cells and PA-1 cells.
According to the above sequences, heavy chain (HC) and light chain (LC) plasmids were constructed (the nucleic acid sequences encoding the VH and VL of the antibodies were recombined into an expression vector carrying a signal peptide (SEQ ID NO: 132, […]) and a heavy chain constant region/light chain constant region sequence to obtain recombinant plasmids expressing VH-CH1-Fc/VL-CL). According to the expression and purification methods in Example 2, the hCDH6-14 humanized antibodies were obtained, and the binding activity of the humanized antibodies was detected by ELISA and FACS (see 2.2 and 2.3 for the method).

[3] = molecular target: T2, human CDH6 on tumor cells (OVCAR3 …); assay: FACS, OVCAR3 cells, 4° C. arm of endocytosis assay
Description: OVCAR3 cells were cultured until a confluence of 90% was reached, the medium was removed by pipetting, the cells were washed once with PBS, and then treated with an enzyme-free cell dissociation solution (Versene, purchased from Gibco, Cat. No. 15040-066) and the cells were collected. The cells were washed once with PBS, counted, resuspended to 2×10⁶ cells/mL in an FACS buffer (PBS+2% FBS), and then added to two 96-well plates at 50 μL/well. The chimeric antibodies were diluted with FACS buffer (PBS+2% FBS) to 10 μg/mL and separately added to the two 96-well plates at 50 μL/well, and the plates were incubated at 4° C. for 1 h. After the cells were washed 3 times with PBS, the cells were resuspended in an FACS buffer. One 96-well plate was incubated at 4° C. for 1 h, and the other 96-well plate was incubated at 37° C. for 1 h. […] After the plates were centrifuged and washed 2 times with PBS, the cells were resuspended in an FACS buffer. The mean fluorescence intensity (MFI) was measured using FACS Canton II (BD). The chimeric antibodies tested all had good endocytic activity.
Some of the antibodies were selected for the endocytic activity assay, and the method for assaying the endocytic activity of the humanized antibodies in OVCAR3 cells was the same as that in 2.4. The humanized antibodies tested all had good endocytic activity.

EC50 [1]: 0.062 nM
Max OD450 [1]: 2.72 OD450
EC50 [2]: 0.25 nM
Max MFI [2]: 3890 MFI
MFI_4° C. [3]: 16100 MFI
B1: hCDH6-14-H6L3 (antibody, V domains shown)
VH: EVQLVQSGAEVKKPGASVKVSCKASGYTFTDNYINWVRQAPGQRLEWMGWIYPGTGNSYYNEKFKGRVTITVDTSASTAYMELSSLRSEDTAVYLCASSYGDSFDYWGQGTTVTVSS
VL: DIVMTQSPDSLAVSLGERATINCRASQDIRNYLNWYQQKPGQTPKLLISYTSRLHSGVPDRFSGSGSGTDFTLTISSLQAEDVAVYYCQQYSQLPWTFGGGTKVEIK
notes: Humanized
